Measurements reported in the supplement of paper PMC11316812.
± gives the standard deviation of the averaged measurements.

How the values were obtained:
hTERT-HMEC = test: percentage of EdU-negative (G0-arrested) nuclei per well, 72 h; higher = more G0 arrest; details: reference: sequence is the full UniProt precursor, the tested protein was the secreted form or ectodomain
MCF7 = test: as above; details: reference: sequence is the full UniProt precursor, the tested protein was the secreted form or ectodomain
[1] = protein concentration 0.0145714 µM
[2] = protein concentration 0.145714 µM
[3] = protein concentration 0.0357143 µM
[4] = protein concentration 0.357143 µM
[5] = protein concentration 0.0225 µM
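Also: secreted proteins added to cultured cells, EdU pulse at the end, nuclei found by Hoechst imaging, EdU status from nuclear versus surrounding ring intensity ratio, PBS as neutral control.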

MNNLLCCALVFLDISIKWTTQETFPPKYLHYDEETSHQLLCDKCPPGTYLKQHCTAKWKTVCAPCPDHYYTDSWHTSDECLYCSPVCKELQYVKQECNRTHNRVCECKEGRYLEIEFCLKHRSCPPGFGVVQAGTPERNTVCKRCPDGFFSNETSSKAPCRKHTNCSVFGLLLTQKGNATHDNICSGNSESTQKCGIDVTLCEEAFFRFAVPTKFTPNWLSVLVDNLPGTKVNAESVERIKRQHSSQEQTFQLLKLWKHQNKDQDIVKKIIQDIDLCENSVQRHIGHANLTFEQLRSLMESLPGKKVGAEDIEKTIKACKPSDQILKLLSLWRIKNGDQDTLKGLMHALKHSKTYHFPKTVTQSLKKTIRFLHSFTMYKLYQKLFLEMIGNQVQSVKISCL
percentage of EdU-negative (hTERT-HMEC; protein concentration 0.034 µM): 4.98 ± 0.78% | percentage of EdU-negative (hTERT-HMEC; protein concentration 0.34 µM): 8.17 ± 0.14% | percentage of EdU-negative (MCF7; protein concentration 0.034 µM): 22.2 ± 1.3% | percentage of EdU-negative (MCF7; protein concentration 0.34 µM): 29.5 ± 1%

MNPTLGLAIFLAVLLTVKGLLKPSFSPRNYKALSEVQGWKQRMAAKELARQNMDLGFKLLKKLAFYNPGRNIFLSPLSISTAFSMLCLGAQDSTLDEIKQGFNFRKMPEKDLHEGFHYIIHELTQKTQDLKLSIGNTLFIDQRLQPQRKFLEDAKNFYSAETILTNFQNLEMAQKQINDFISQKTHGKINNLIENIDPGTVMLLANYIFFRARWKHEFDPNVTKEEDFFLEKNSSVKVPMMFRSGIYQVGYDDKLSCTILEIPYQKNITAIFILPDEGKLKHLEKGLQVDTFSRWKTLLSRRVVDVSVPRLHMTGTFDLKKTLSYIGVSKIFEEHGDLTKIAPHRSLKVGEAVHKAELKMDERGTEGAAGTGAQTLPMETPLVVKIDKPYLLLIYSEKIPSVLFLGKIVNPIGK [Q8IW75]
percentage of EdU-negative (hTERT-HMEC; [1]): 6.15 ± 0.62% | percentage of EdU-negative (hTERT-HMEC; [2]): 15.6 ± 0.67% | percentage of EdU-negative (MCF7; [1]): 26.6 ± 0.27% | percentage of EdU-negative (MCF7; [2]): 29.1 ± 1.5%

MNPTLILAAFCLGIASATLTFDHSLEAQWTKWKAMHNRLYGMNEEGWRRAVWEKNMKMIELHNQEYREGKHSFTMAMNAFGDMTSEEFRQVMNGFQNRKPRKGKVFQEPLFYEAPRSVDWREKGYVTPVKNQGQCGSCWAFSATGALEGQMFRKTGRLISLSEQNLVDCSGPQGNEGCNGGLMDYAFQYVQDNGGLDSEESYPYEATEESCKYNPKYSVANDTGFVDIPKQEKALMKAVATVGPISVAIDAGHESFLFYKEGIYFEPDCSSEDMDHGVLVVGYGFESTESDNNKYWLVKNSWGEEWGMGGYVKMAKDRRNHCGIASAASYPTV
percentage of EdU-negative (hTERT-HMEC; [3]): 4.81 ± 0.59% | percentage of EdU-negative (hTERT-HMEC; [4]): 5.42 ± 0.42% | percentage of EdU-negative (MCF7; [3]): 27.8 ± 1.3% | percentage of EdU-negative (MCF7; [4]): 24 ± 1.1%

MNQKTILVLLILAVITIFALVCVLLVGRGGDGGEPSQLPHCPSVSPSAQPWTHPGQSQLFADLSREELTAVMRFLTQRLGPGLVDAAQARPSDNCVFSVELQLPPKAAALAHLDRGSPPPAREALAIVFFGRQPQPNVSELVVGPLPHPSYMRDVTVERHGGPLPYHRRPVLFQEYLDIDQMIFNRELPQASGLLHHCCFYKHRGRNLVTMTTAPRGLQSGDRATWFGLYYNISGAGFFLHHVGLELLVNHKALDPARWTIQKVFYQGRYYDSLAQLEAQFEAGLVNVVLIPDNGTGGSWSLKSPVPPGPAPPLQFYPQGPRFSVQGSRVASSLWTFSFGLGAFSGPRIFDVRFQGERLVYEISLQEALAIYGGNSPAAMTTRYVDGGFGMGKYTTPLTRGVDCPYLATYVDWHFLLESQAPKTIRDAFCVFEQNQGLPLRRHHSDLYSHYFGGLAETVLVVRSMSTLLNYDYVWDTVFHPSGAIEIRFYATGYISSAFLFGATGKYGNQVSEHTLGTVHTHSAHFKVDLDVAGLENWVWAEDMVFVPMAVPWSPEHQLQRLQVTRKLLEMEEQAAFLVGSATPRYLYLASNHSNKWGHPRGYRIQMLSFAGEPLPQNSSMARGFSWERYQLAVTQRKEEEPSSSSVFNQNDPWAPTVDFSDFINNETIAGKDLVAWVTAGFLHIPHAEDIPNTVTVGNGVGFFLRPYNFFDEDPSFYSADSIYFRGDQDAGACEVNPLACLPQAAACAPDLPAFSHGGFSHN
percentage of EdU-negative (hTERT-HMEC; [1]): 5.32 ± 0.3% | percentage of EdU-negative (hTERT-HMEC; [2]): 6.82 ± 0.15% | percentage of EdU-negative (MCF7; [1]): 22.8 ± 0.3% | percentage of EdU-negative (MCF7; [2]): 26.8 ± 0.78%

MNQVTIQWDAVIALYILFSWCHGGITNINCSGHIWVEPATIFKMGMNISIYCQAAIKNCQPRKLHFYKNGIKERFQITRINKTTARLWYKNFLEPHASMYCTAECPKHFQETLICGKDISSGYPPDIPDEVTCVIYEYSGNMTCTWNAGKLTYIDTKYVVHVKSLETEEEQQYLTSSYINISTDSLQGGKKYLVWVQAANALGMEESKQLQIHLDDIVIPSAAVISRAETINATVPKTIIYWDSQTTIEKVSCEMRYKATTNQTWNVKEFDTNFTYVQQSEFYLEPNIKYVFQVRCQETGKRYWQPWSSLFFHKTPETVPQVTSKAFQHDTWNSGLTVASISTGHLTSDNRGDIGLLLGMIVFAVMLSILSLIGIFNRSFRTGIKRRILLLIPKWLYEDIPNMKNSNVVKMLQENSELMNNNSSEQVLYVDPMITEIKEIFIPEHKPTDYKKENTGPLETRDYPQNSLFDNTTVVYIPDLNTGYKPQISNFLPEGSHLSNNNEITSLTLKPPVDSLDSGNNPRLQKHPNFAFSVSSVNSLSNTIFLGELSLILNQGECSSPDIQNSVEEETTMLLENDSPSETIPEQTLLPDEFVSCLGIVNEELPSINTYFPQNILESHFNRISLLEK [Q5VWK5]
percentage of EdU-negative (hTERT-HMEC; [5]): 6.46 ± 1.6% | percentage of EdU-negative (hTERT-HMEC; protein concentration 0.225 µM): 15.8 ± 1.4% | percentage of EdU-negative (MCF7; [5]): 23.7 ± 1.1% | percentage of EdU-negative (MCF7; protein concentration 0.225 µM): 29.2 ± 0.53%

MNRFLLLMSLYLLGSARGTSSQPNELSGSIDHQTSVQQLPGEFFSLENPSDAEALYETSSGLNTLSEHGSSEHGSSKHTVAEHTSGEHAESEHASGEPAATEHAEGEHTVGEQPSGEQPSGEHLSGEQPLSELESGEQPSDEQPSGEHGSGEQPSGEQASGEQPSGEHASGEQASGAPISSTSTGTILNCYTCAYMNDQGKCLRGEGTCITQNSQQCMLKKIFEGGKLQFMVQGCENMCPSMNLFSHGTRMQIICCRNQSFCNKI
percentage of EdU-negative (hTERT-HMEC; [3]): 6.06 ± 0.83% | percentage of EdU-negative (hTERT-HMEC; [4]): 9.78 ± 0.68% | percentage of EdU-negative (MCF7; [3]): 24.76 ± 0.1% | percentage of EdU-negative (MCF7; [4]): 27.1 ± 1.2%
